The values that follow come from US20250320303A1 (SHENGHE CHINA BIOPHARMACEUTICAL, published 2025).

A word on the Kd: it is the free concentration of one partner at which half of the binding sites on the other are occupied at equilibrium, for simple one-to-one binding. One may read the koff as the rate constant with which the complex falls apart. As usually defined, the kon is the rate constant with which the complex forms. A word on the EC50: it is the concentration giving half of the maximal effect. Low values mean an effect from little substance, high ones a need for much substance. The IC50 is the concentration at which inhibition is half-maximal.

Bounds are passed on as bounds.

The target of experiment [1] is T1, Recombinant human TNFR2-His Tag protein (Sino, Cat: 10417-H08H) (human, UniProt P20333 23-257).
T1 construct: Bought protein; also called hTNFR2; not shown: His tag
T1 sequence (looked up): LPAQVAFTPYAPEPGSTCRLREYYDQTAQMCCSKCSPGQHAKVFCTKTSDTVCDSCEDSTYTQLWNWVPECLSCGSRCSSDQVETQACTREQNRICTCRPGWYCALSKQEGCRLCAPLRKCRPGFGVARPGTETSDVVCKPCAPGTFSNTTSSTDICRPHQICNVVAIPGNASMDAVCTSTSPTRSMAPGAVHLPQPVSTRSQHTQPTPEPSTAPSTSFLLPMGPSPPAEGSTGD
Briefly: SPR (Biacore 8K), antibody captured by anti-rat Fc, 10 nM TNFR2-His as analyte, 1:1 model. The procedure:
The CM5 sensor chip was activated at a flow rate of […] for 420 s. The channel was then injected with 30 μg/mL of anti-rat Fc IgG in 10 mM NaAc (pH 4.5) at a flow rate of 10 μL/min. The chip was inactivated with 1 M ethanolamine-hydrochloric acid (GE) for 420 s at a flow rate of 10 μL/min.
Candidate antibodies in running buffer 1×HBS-EP+(10 mM HEPES, 150 mM NaCl, 3 mM EDTA, 0.05% Tween 20, pH 7.4) were captured onto Fc2 with anti-rat Fc IgG at a flow rate of 10 μL/min. The 10 nM recombinant human TNFR2-His Tag protein (Sino; Cat: 10417-H08H) and running buffer were sequentially injected into Fc1-Fc2 at a flow rate of […], bound for 180 s, and then dissociated for 3600 s. 10 mM glycine (pH 1.5) was injected as regeneration buffer after each dissociation.
Result plots for the reference channel Fc1 and the buffer channel were subtracted from the test result plots. The experimental data fit the 1:1 binding model. The molecular weight of 26.6 kDa was used to calculate the molar concentration of recombinant human TNFR2-His Tag protein.

Experiment [2] addresses T2, human TNFR2 (tumor necrosis factor receptor 2), on cells (human, UniProt P20333 23-461).
T2 construct: whole, on cells; also called hTNFR2; CHOK1-hTNFR2
T2 sequence (looked up): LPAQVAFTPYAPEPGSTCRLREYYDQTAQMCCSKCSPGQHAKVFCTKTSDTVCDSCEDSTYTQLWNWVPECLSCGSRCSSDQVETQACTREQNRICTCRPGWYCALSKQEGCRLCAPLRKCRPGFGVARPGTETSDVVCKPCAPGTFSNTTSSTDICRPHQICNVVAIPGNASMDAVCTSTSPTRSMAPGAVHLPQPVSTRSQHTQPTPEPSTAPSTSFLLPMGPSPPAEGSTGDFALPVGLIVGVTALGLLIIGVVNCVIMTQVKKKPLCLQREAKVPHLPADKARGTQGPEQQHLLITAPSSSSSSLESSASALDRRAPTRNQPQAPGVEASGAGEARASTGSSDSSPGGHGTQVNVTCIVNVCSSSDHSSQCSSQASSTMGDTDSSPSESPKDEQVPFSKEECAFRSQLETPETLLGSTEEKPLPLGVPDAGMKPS
Briefly: flow cytometry on CHOK1-hTNFR2 cells. The procedure: CHOK1-hTNFR2 cells were plated at 1×10⁵/well (containing 1% BSA). 100 μL of isotype control and candidate antibodies were added at a concentration of 100 nm and 4-fold diluted in 11 gradients (containing 1% BSA). Cells were incubated at 4° C. for 1 hour and then washed twice with excess FACS buffer. Cells were resuspended in 100 μL of FACS buffer, and 100 μL of goat anti-rat IgG Fc-AF647 (1:500) containing 1% BSA was added, incubated at 4° C. without light for 30 minutes and washed twice with excess FACS buffer. Cells were fixed in fixation buffer and subsequently analyzed by flow cytometry. The FACS method screened for candidate antibodies with high specific binding activity to human TNFR2.
For orientation: A flow cytometer gives signals particle by particle.

Experiment [3] addresses T2, human TNFR2 (tumor necrosis factor …). Briefly: cell-based or functional assay.
Experiment [4] addresses T1, Recombinant human TNFR2-His Tag protein …. Briefly: competition ELISA: captured TNFR2-His, antibody titrated against 1.6 nM biotin-TNF-alpha (competitor). The procedure: Anti-His antibody (1 μg/mL) was coated at 50 μL/well, incubated at 4° C. overnight and washed 3 times with PBST. 2% BSA was added at 200 μL/well, incubated at room temperature for 1 hour and washed 3 times with PBST. 0.25 μg/mL (containing 2% BSA) of recombinant human TNFR2-His Tag protein (Sino; Cat: 10417-H08H) was added at 50 μL/well, incubated for 1 hour at room temperature and washed 3 times with PBST. Primary antibody (isotype control or candidate antibody) was added at a concentration of 100 nM and diluted 4-fold in 11 gradients with a solution containing 1.6 nM recombinant human TNF-alpha-Biotin protein (Sino; Cat: 10602-HANE-B) and 2% BSA, incubated for 2 hours at room temperature and washed 3 times with PBST. Secondary antibody SA-HRP (1:5000) containing 2% BSA was added at 50 μL/well, incubated for 1 hour at room temperature and washed 3 times with PBST.
After washing, TMB developed the color for 10 min, and the OD450 reading was determined by the enzyme labeler after the display was terminated. Based on the experimental results, it was judged whether the candidate antibodies had ligand blocking activity. As shown in Table 2 and FIG. 2, 2 sequences show better ligand blocking ability than BMK2; 6 sequences show equivalent ligand blocking ability to BMK2.

Experiment [5] has as its target T3, human W3785-hProl.ECD.His (Human-TNFR2-His) protein (human, UniProt P20333 23-257).
T3 construct: extracellular domain; not shown: His tag
T3 sequence (looked up): T1 sequence (looked up)
The experiment is described as follows: BLI (Octet Red96e), antibody on AHC sensor, Human-TNFR2-His in solution, single concentration. As to the method: After equilibration of the AHC sensor with 0.02% PBST (0.02% Tween 20, pH 7.4, 1*PBS) as buffer for 60 s, the TNFR2 antibody in the sample plate was immobilized for 300 s, and second equilibration was performed for 180 s. 100 nM of human W3785-hProl.ECD.His (Human-TNFR2-His) protein was bound with the TNFR2 antibody for 300 s and then dissociated for 600 s. After dissociation, 10 mM glycine (pH 2.0) was used as regeneration buffer to regenerate for 30 s.
Background: Biolayer interferometry detects binding as a change in optical thickness at a sensor tip.

In experiment [6] the target is T3, human W3785-hProl.ECD.His …. The experiment is described as follows: indirect ELISA on coated Human-TNFR2-His. The procedure:
(1) Coating: Human-TNFR2-His was diluted to 0.5 μg/mL with coating solution (1×PBS, pH 7.4), and coated into a 96-well ELISA plate at 100 μL/well at 4° C. overnight. The coating solution was poured off, and the plate was washed with 1×PBST at 300 μL per well, washed with a plate cleaning instrument for 4 times, and patted dry on sheet paper. [0184] (2) Blocking: it was blocked with 3% non-fat dry milk at 300 μL/well, and incubated at 37° C. for 1 h. The blocking solution was poured off, washed by a plate cleaning instrument for 4 times, and patted dry on sheet paper. [0185] (3) Sample dilution: the reference product and the test product were diluted with 3% non-fat dry milk to 10 μg/mL, and this was used as the initial concentration for 3-fold dilution with a total of 11 gradients of dilution, and another one blank well was set up, and only diluent was added. It was incubated at 100 μL/well at 37° C. for 1 h. Liquid in the wells was discarded, washed by a plate cleaning instrument for 4 times, and patted dry on the sheet paper. [0186] (4) Addition of enzyme-labeled secondary antibody: Peroxidase-conjugated AffiniPure F(ab′)2 Fragment Goat Anti-Human IgG was diluted with 3% non-fat dry milk at 1:20,000. It was incubated at 100 μL/well at 37° C. for 1 h. It was washed by a plate cleaning instrument for 6 times and patted dry on sheet paper. […] (5) Color development: TMB color development solution was added at 100 μL/well and wrapped with aluminium foil, and the color was developed at 37° C. without light for 8 min. [0188] (6) Termination of color development: terminal solution 1 M HCl was added to terminate the color development reaction at 100 μL/well. [0189] (7) Reading at 450 nm on the enzyme labeler. [0190]
A general note: ELISA stands for enzyme-linked immunosorbent assay.

Experiment [7] shares this target. The experiment is described as follows: BLI (Octet Red96e), antibody on AHC sensor, Human-TNFR2-His in solution, multiple concentrations.

B1: Antibody 04 (antibody, V domains shown)
VH: EVHLQQSGPEVGRPGSSVKISCKASGYTFTDYIIHWVKQSPGQGLEWMGWIDPDYGNTDYADKFKKKATLTADASSNTAFIHLSRLTSEDTATYFCARDDGSPLVMDAWGQGTSVTVSS
VL: NIQLTQSPSLLSASVGDRVTLSCNGSQNIDNYLAWFQQKLGEAPKLLIYSTYSLQTGIPSRFSGSRSGTDYTLTISSLQPEDVATYFCFQYNNGYMFGAGTKLELK
notes: Rat monoclonal antibody from a hybridoma
B1: in experiment [1], the Kd is less than 0.00758 nM, the koff was less than 1e-05 s⁻¹ and the kon turned out to be 1.32e+06 M⁻¹ s⁻¹. Further, in experiment [2], the EC50 was found to be 0.025 nM and the “Maximum average fluorescence value” turned out to be 1320. For the same molecule, in experiment [3], the “IC50(nM), Treg cell count after 72 h with IL2 and TNF-alpha” value amounted to 0.88 nM; the “Treg cell changes relative to IL-2(%)” value stood at 100%. In experiment [4], the IC50 was 0.584 nM and the “Inhibition rate (%)” value is 96%.

B2: Antibody 10-xIgG1K (antibody, V domains shown)
VH: EVQLVETGGGLVQPGKSLKLTCATSGFTFSNAWMGWVRQSPEKQLEWVAQIKDKSNNYPTYYAESVKGRFTISRDDSESSVYLQMNSLKEEDTAIYYCTGYGDFFDYWGQGVVVTVSS
VL: DIQMTQSPASLSASLGETVTIECRASEDIYNGLAWYQQKPGNSPRLLIFNANSLHTGVPSRFSGSGSGTQYSLKINSLQSEDVASYFCQQYYDHPLTFGSGIKLEIKR
notes: Rat-human chimeric antibody, human IgG1 kappa
On to B2, for which the Kd in experiment [5] stood at 0.24 nM. The molecule further displayed an EC50 in experiment [6] of 0.0143 mg/L. In experiment [7], binding was characterised by a dissociation constant (Kd) of 0.0996 nM, the koff stood at 8.1e-05 s⁻¹ and the kon is 813000 M⁻¹ s⁻¹.
